Changes are numbered by the printed parent chain.

Data set [1] addresses T1, NadR H80A H80A (Salmonella enterica serovar Typhimurium) (UniProt P24518).
T1 sequence: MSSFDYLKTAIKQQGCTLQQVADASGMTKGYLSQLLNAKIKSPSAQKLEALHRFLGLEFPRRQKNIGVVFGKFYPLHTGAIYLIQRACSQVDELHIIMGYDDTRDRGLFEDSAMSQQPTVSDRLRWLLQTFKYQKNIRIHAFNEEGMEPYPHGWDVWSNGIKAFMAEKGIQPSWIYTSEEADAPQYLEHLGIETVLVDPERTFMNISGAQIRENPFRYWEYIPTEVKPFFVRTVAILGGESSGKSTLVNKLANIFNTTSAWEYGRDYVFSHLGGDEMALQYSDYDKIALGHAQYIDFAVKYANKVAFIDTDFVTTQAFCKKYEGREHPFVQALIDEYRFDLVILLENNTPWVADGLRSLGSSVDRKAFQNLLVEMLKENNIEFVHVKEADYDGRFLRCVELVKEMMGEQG
The data set is described as follows: EMSA. To be noted: EMSA: 50 ng DNA, 20 mM Tris pH 7.5, 100 mM NaCl, 10% glycerol, 4 mM MgCl2, 1% NP-40, 1 mM DTT, 25 uL, 20 min room temperature; 6% native PAGE, 0.5x TBE, SYBR …. (In general: In EMSA bound probe runs differently from free probe, usually more slowly.)

The target of data set [2] is T2, NadR R212A R212A (Salmonella enterica serovar Typhimurium) (UniProt P24518).
T2 sequence: T1 sequence with A80H, R212A
The data set is described as follows: EMSA. To be noted: EMSA: 50 ng DNA, 20 mM Tris pH 7.5, 100 mM NaCl, 10% glycerol, 4 mM MgCl2, 1% NP-40, 1 mM DTT, 25 uL, 20 min room temperature; 6% native PAGE, 0.5x TBE, SYBR ….

For the sequence “GCTCATCGTGGCTTCTCGTTTTACTGACTTAACGAAACAACCGAATGAAAGCGTAATAAACGCCACAATCGGTTAATTTGTTTTATATGCTAAACAAGATAGCTGATTCAATAAGGAAAGTCACAATAATTACGTAGCCCCGTATCTGATGGCGGCGTAACGTCTTATCTGGCCTACGTGAGCGGTGCCGTCTGTAGGCCTGAT (double strand) [nadA-pnuC promoter]”, the binding result in data set [1] and in data set [2] was “binds” in each case.

With “GGTTCTTGTTTAATTTACTAAACATGGTTGCGGCAGATTAGCACTATATGGCGCTAAAAAGCACGTTATGATTTCGCTGGTGTTGTGCTTATTAAACATAAAATAAAAATACGGCGAGAGATAAACGGCAAAAAATATTTTATAGGGCAGGGTGTTAGCGTCGGATTTTGTAGTGAAATAAAGATGCTGTTAGGTTACTC (double strand) [nadB promoter]”, the binding result in data set [1] and in data set [2] was “binds” throughout.

Values taken from paper PMC12421817, “c-di-GMP regulates bacterial NAD biosynthesis via targeting the transcriptional repressor NadR” (mBio, 2025).
